From patent US11667697

Assays:
[1] = biological target: CPXV ortholog of H3 (cowpox virus); assay: cell-based or functional assay
[2] = biological target: MPXV ortholog of H3 (monkeypox virus); assay: cell-based or functional assay
[3] = biological target: CPXV ortholog of H3 (cowpox virus); assay: lysate ELISA
[4] = biological target: MPXV ortholog of H3 (monkeypox virus); assay: lysate ELISA
[5] = biological target: VACV A25 protein (vaccinia virus); assay: lysate ELISA
[6] = biological target: MPXV ortholog of A25 (monkeypox virus); assay: lysate ELISA
[7] = biological target: CPXV ortholog of A25 (cowpox virus); assay: lysate ELISA
[8] = biological target: CPXV ortholog of I1 (cowpox virus); assay: lysate ELISA
[9] = biological target: VACV I1 protein (vaccinia virus); assay: lysate ELISA
[10] = biological target: MPXV ortholog of I1 (monkeypox virus); assay: lysate ELISA
[11] = biological target: VARV ortholog of L1 (variola virus); assay: purified antigen ELISA
[12] = biological target: CPXV ortholog of L1 (cowpox virus); assay: cell-based or functional assay
[13] = biological target: MPXV ortholog of L1 (monkeypox virus); assay: cell-based or functional assay
[14] = biological target: CPXV ortholog of L1 (cowpox virus); assay: lysate ELISA
[15] = biological target: MPXV ortholog of L1 (monkeypox virus); assay: lysate ELISA
[16] = biological target: VARV ortholog of A33 (variola virus); assay: purified antigen ELISA
[17] = biological target: MPXV ortholog of A33 (monkeypox virus); assay: cell-based or functional assay
[18] = biological target: CPXV ortholog of A33 (cowpox virus); assay: lysate ELISA
[19] = biological target: MPXV ortholog of A33 (monkeypox virus); assay: lysate ELISA
[20] = biological target: VARV ortholog of B5 (variola virus); assay: purified antigen ELISA
[21] = biological target: CPXV ortholog of B5 (cowpox virus); assay: cell-based or functional assay
[22] = biological target: CPXV ortholog of B5 (cowpox virus); assay: lysate ELISA
[23] = biological target: MPXV ortholog of B5 (monkeypox virus); assay: lysate ELISA
[24] = biological target: MPXV ortholog of I1 (monkeypox virus); assay: cell-based or functional assay
[25] = biological target: MPXV ortholog of the A27 VACV protein (monkeypox virus); assay: purified antigen ELISA
[26] = biological target: VARV ortholog of A27 (variola virus); assay: purified antigen ELISA
[27] = biological target: MPXV ortholog of the A27 VACV protein (monkeypox virus); assay: cell-based or functional assay
[28] = biological target: CPXV ortholog of A27 (cowpox virus); assay: cell-based or functional assay
[29] = biological target: MPXV ortholog of the A27 VACV protein (monkeypox virus); assay: lysate ELISA
[30] = biological target: CPXV ortholog of A27 (cowpox virus); assay: lysate ELISA

B1: VACV-314 (antibody, V domains shown)
VH: QVQLVQSGPGLVKPSETLSLTCTVSGGSISSYYWSWIRQPPGKGLEYIGHIYYSGGTKYNPSLRSRVTISVDTSKNQFSLKLTSVTAADTAVYYCARLAGRKPDADSWGQGTLVTVSS
VL: QPVLTQEPSLTVSPGGTVTLTCASSTGAVTSGFFPNWLQQKPGQAPRALIYSTNNKHSWTPARFSGSLLGGKAALTLSGVQPEDEAEYYCLLYYGGVVVFGGGTKLTVL
[1]
  PRNT Emax, CPXV MV+C': 85%
  PRNT IC50, CPXV MV+C': 0.7 µg/mL
[2]
  PRNT Emax, MPXV MV+C': 84%
  PRNT IC50, MPXV MV+C': 0.8 µg/mL
[3]
  EC50: 0.004 µg/mL
[4]
  EC50: 0.003 µg/mL

B2: MPXV-9 (antibody, V domains shown)
VH: QVQLVQSGAEVKKPGASVKVSCKASGYNLTTYDIVWVRQAAGQGLEWMGWMNPKSGNTAYAERFQGRVTMTRNTSISTAYMELSSLRSEDTAVYYCARSLDSLRFLEWFHQNYYYFMDVWGKGTTVT
VL: EIVLTQSPATLSLSPGERATLSCRASQTIGGYLAWYQQIPGQAPRLLIYDASNRATGIPARFSGSGSGTDFTLTISSLEPEDFAVYYCQLRSTFGGGTKVDIK
[5]
  EC50: 0.022 µg/mL
[6]
  EC50: 0.107 µg/mL
[7]
  EC50: 0.876 µg/mL

B3: VACV-315 (antibody, V domains shown)
VH: EVQLLESGGGLVQPGGSLKLSCAASGFIFSNYAMGWVRQAPGKGLEWVSALSASDGVTSYADSVKGRFTISRDNSKNTMYLQMNRLRTEDTAIYFCAKGRARVNNIYRYFDHWGQGTLVTVSS
VL: QSVLTQPASVSGSPGQSITISCTGTSSDVGAYTFVSWYQHHPGKAPKLIIYEVSNRPSGVSDRFSGSKSGNTASLTISGLQAEDEADYYCNSYTTTSPWVFGGGTQLTVL
[1]
  PRNT Emax, CPXV MV+C': 70%
  PRNT IC50, CPXV MV+C': 2.8 µg/mL
[3]
  EC50: 0.002 µg/mL
[4]
  EC50: 0.001 µg/mL

B4: MPXV-31 (antibody, V domains shown)
VH: QLQLQESGPGLVKPSETLSLTCTVSGGSISSRNFFWAWIRQPPGKGLEFIGSIFYSGGTYYNPSLKSRLSISVDTSRNQFSLRLSSVTAADTAVYYCARHMIVVLPGVPISTSFDPWGQGTL
VL: DIVMTQSPDSLAVSLGERATINCKSSQSVLSNSNNKNYLAWYQQKPGQPPRLLIYWASARESGVPDRFSGSGSGTDFTLTIISLQPEDVAVYYCQQYYSPPAELSFGGGTKVDIK
[8]
  EC50: 0.01 µg/mL
[9]
  EC50: 0.01 µg/mL
[10]
  EC50: 0.04 µg/mL

B5: MPXV-87 (antibody, V domains shown)
V domain 1: QVQLVQSGAEVKKPGASVKVSCKASGYTFTSHGIIWVRQAPGQGLEWMGWISVYNDNTNSAQKFQDRVTMTTATSTSTAYMELRSLRSDDTAVYYCARSSSGPRYYYYGMDVWGQGTTSP
V domain 2: QSVVTQPPSVSGAPGQRVTISCTGSSSNIGAGYAVHWYYQLPGIAPKLLIFGNNNRPSGVPDRFSGSKSGTSASLAITGLQAEDEADYYCQSYDSSLSGWVFGGGTQVTVL
[11]
  EC50: 0.3 µg/mL
[12]
  PRNT Emax, CPXV MV: 63%
  PRNT Emax, CPXV MV+C': 82%
  PRNT IC50, CPXV MV: 0.8 µg/mL
  PRNT IC50, CPXV MV+C': 0.6 µg/mL
[13]
  PRNT Emax, MPXV MV: 57%
  PRNT Emax, MPXV MV+C': 65%
  PRNT IC50, MPXV MV: 50 µg/mL
  PRNT IC50, MPXV MV+C': 50 µg/mL
[14]
  EC50: 0.003 µg/mL
[15]
  EC50: 0.001 µg/mL

B6: MPXV-51 (antibody, V domains shown)
VH: QLQLQESGPGLVKPSETLSLSCTVSGGSINSRTYYWGWIRQPPGKGPEWIGTVFHNVSTLYTSSLRSRVTISVDTSKNRFSLKLTSVTAADTAVYFCGRLTPRNLFRGTLVRWVDPWGQGILVTVSS
VL: EIVLAQSPGTLSLSPGERATLSCRASHNLNSNYLAWYQQKPGQAPRLLIYGASSRATGIPDRFTGSGSGTDFTLTISRLEPEDFAVYYCQQYAGSLTFGGGTKVDIK
[16]
  EC50: 0.04 µg/mL
[17]
  PRNT Emax, MPXV EV+C': 77%
  PRNT IC50, MPXV EV+C': 0.8 µg/mL
[18]
  EC50: 0.024 µg/mL
[19]
  EC50: 0.025 µg/mL

B7: MPXV-66 (antibody, V domains shown)
VH: QVQLQQWGAGLLKPSETLSLTCAVHGGSFSGYFWSWIRQPPGKGLEWIGEMNHSGSTNYNPSLKSRVTISVDTSKKQFSLKLNSVTAADTAVYYCARTARTVRYFENWGQGTLVTVSS
VL: DIVMTQSPDSLAVSLGERATINCKSSQTVLYNSNNYSYLTWYQQKPGQPPRVLIYWASTRESGVPDRFSGSGSGTDFTLTISSLQAENVALYYCQQYYSTPWTFGQGTKVDIK
[20]
  EC50: 0.16 µg/mL
[21]
  PRNT Emax, CPXV EV+C': 86%
  PRNT IC50, CPXV EV+C': 0.03 µg/mL
[22]
  EC50: > 29 µg/mL
[23]
  EC50: > 16 µg/mL

B8: MPXV-97 (antibody, V domains shown)
VH: QVQLVQSGGGVVQPGRSLTLSCSASGFIFTRYGLHWVRQAPGKGLEWVAVISSDGTNRHYADSVKGRFTVSRDNSKSTLYVQMNSLRNEDTAVYYCARLSLEAAWYFDLWGRGTLVTVSS
VL: QSVVTQPPSVSGAPGQRVTISCTGSSSNIGAGYDVHWYQHLPGTAPKVLIYGNTNRPSGVPDRFSGSKSGTSASLAITGLQAEDEADYYCQSYDNSLNGPWVFGTGTQ
[24]
  PRNT Emax, MPXV MV: 96%
  PRNT Emax, MPXV MV+C': 76%
  PRNT IC50, MPXV MV: 0.02 µg/mL
  PRNT IC50, MPXV MV+C': 0.02 µg/mL
[8]
  EC50: > 50 µg/mL
[9]
  EC50: 0.008 µg/mL
[10]
  EC50: 0.001 µg/mL

B9: MPXV-71 (antibody, V domains shown)
V domain 1: EVQLVESGGGLVQPGESLKISCSASGFTFSDYAMHWVRQAPGQGLQYVSAISSNGHSTYYADSVKGRFTFSRDNSKNTLYLQMSSLRPEDTAVYYCVRCLLRGLISPFDYWGQGTLV
V domain 2: QSVLTQPPSVSEAPRQRVTISCSGSSSNIGNNAVNWYQQLPGKAPKLLIYYDDLLPSGVSDRFSGSKSGTTASLTISGPPEDEADFYCSTWDYSLSARVFGGGTQVTVL
[8]
  EC50: 0.014 µg/mL
[9]
  EC50: 0.022 µg/mL
[10]
  EC50: 0.006 µg/mL

B10: VACV-301 (antibody, V domains shown)
VH: EVQLLESGGGLVQPGGSLRLSCAASGFSFSSYAMSWVRQAPGKGLEWVSGIGNSGDRTFYADSAKGRFTIFRDNSNNRLYLQMNSLRAADTAVYYCAKWGRFESGAFWGQGVLVTVSS
VL: SYELTQSPSVSVSPGQTARITCSGDALPEQYAYWYQQKPGQAPVLVIYKDSERPSGIPERFSGSGSGTTVTLTITGVQAEDEADYYCQSADNSGTYEVFGTGTKVTVL
[25]
  EC50: 0.04 µg/mL
[26]
  EC50: 0.11 µg/mL
[27]
  PRNT Emax, MPXV MV: 84%
  PRNT Emax, MPXV MV+C': 92%
  PRNT IC50, MPXV MV: 1.6 µg/mL
  PRNT IC50, MPXV MV+C': 0.8 µg/mL
[28]
  PRNT Emax, CPXV MV+C': 86%
  PRNT IC50, CPXV MV+C': 4 µg/mL
[29]
  EC50: > 5.6 µg/mL
[30]
  EC50: > 1.4 µg/mL

B11: VACV-309 (antibody, V domains shown)
VH: EVQLLESGGGLVQPGESLKLSCAASGFTFSSYAMNWVRQAPGKGLEWVSGISGSGGSTYYADSVKGRFTVSRDNSKNTLYLQMNSLRAEDTAVYYCAKDNNYYYYGMDVWGQGTTVTVSS
VL: AIQMTQSPSSLSASVGDRVTITCRASQGIRNDLGWYQQKPGKAPKLLIYAASSLQSGVPSRFSGSGSGTDFTLTISSLQPEDFATYYCLQDYNYPRMFGQGTKVDIK
[5]
  EC50: 0.005 µg/mL
[6]
  EC50: 0.001 µg/mL
[7]
  EC50: 0.005 µg/mL

B12: MPXV-79 (antibody, V domains shown)
VH: QVQLVQSGAEVKKPGASVKVSCKASGYSFRSNGISWVRQAPGQGFEWLGWIAAYNGDTKYVQKFQGRLTMTTDTSTDTAYMELWSLRSDDTAVYYCARDPKLGRKGSAFDIWGQGTLVIVSS
VL: EIVLTQSPATLSLSPGGRATLSCRASQSVGNYLTWYQQKPGQAPRLLIFDGSTRATGIPARFSGSGSGTDFTLTISSLEPEDFAVYYCLQRSDLYTFGQGTKVDIK
[1]
  PRNT Emax, CPXV MV+C': 81%
  PRNT IC50, CPXV MV+C': 0.2 µg/mL
[2]
  PRNT Emax, MPXV MV: 67%
  PRNT IC50, MPXV MV: 12.5 µg/mL
[3]
  EC50: 0.004 µg/mL
[4]
  EC50: 0.003 µg/mL

B13: VACV-22 (antibody, V domains shown)
VH: QVQLVESGGGVVQPGRSLRLSCAASGFTFSNSGMHWVRQAPGKGLEWVAVIWFDGTNKYYADSVKGRFTISRDNSKNTLYLQMNSLRAEDTAVYYCARVPCGGDCYSGYLQHWGQGTLVTVSS
VL: AIVMTQSPATLSVSPGERATLSCRASQSVSSTLAWYQQKPGQAPRLLIYGASTKATGIPARFSGSGSGTEFTLTISSLQSEDFAVYYCQHYNNWPPLLTFGGGTKVDIK
[16]
  EC50: 0.02 µg/mL
[17]
  PRNT Emax, MPXV EV+C': 72%
  PRNT IC50, MPXV EV+C': 50 µg/mL
[18]
  EC50: > 0.009 µg/mL
[19]
  EC50: > 0.006 µg/mL
